Source: PMC3299407 (Biochemical Journal, 2011)
Positions count from the first letter of the chain named. Names may count otherwise.

B1: myc-laforin wild type (pCMVmyc-laforin WT) (natural protein, human, UniProt O95278 1-331, looked up)
chain: MRFRFGVVVPPAVAGARPELLVVGSRPELGRWEPRGAVRLRPAGTAAGDGALALQEPGLWLGEVELAAEEAAQDGAEPGRVDTFWYKFLKREPGGELSWEGNGPHHDRCCTYNENNLVDGVYCLPIGHWIEATGHTNEMKHTTDFYFNIAGHQAMHYSRILPNIWLGSCPRQVEHVTIKLKHELGITAVMNFQTEWDIVQNSSGCNRYPEPMTPDTMIKLYREEGLAYIWMPTPDMSTEGRVQMLPQAVCLLHALLEKGHIVYVHCNAGVGRSTAAVCGWLQYVMGWNLRKVQYFLMAKRPAVYIDEEALARAQEDFFQKFGKVRSSVCSL
B2: myc-laforin S25D (pCMVmyc-laforin S25D) (natural protein, human, UniProt O95278 1-331, looked up)
chain: B1 chain with S25D

Molecular target: the molecule itself
Test: native gel or EMSA

Protein | stoichiometry N
B1 | 2
B2 | 2
